# Assay results published in US20110086028A1.
# Legend:
# [1] = target: full length gp-340 (exon 1-54) expressed on the surface of 293 cells transfected with pDEST-DMBT1 (clone 1D4) (UniProt Q9UGM3); assay: cell-based or functional assay
# [2] = target: endogenous cell-associated gp-340 on human cell lines (AGS, VK2E6E7, Endo1E6E7, Ect1E6E7, HEC1A, untransfected 293) and human vaginal and cervical tissue (human) (UniProt Q9UGM3); assay: cell-based or functional assay
# Chain of endogenous cell-associated gp-340 on human cell lines (AGS, VK2E6E7, Endo1E6E7, Ect1E6E7, HEC1A, untransfected 293) and human vaginal and cervical tissue (human) (Q9UGM3 20-2413): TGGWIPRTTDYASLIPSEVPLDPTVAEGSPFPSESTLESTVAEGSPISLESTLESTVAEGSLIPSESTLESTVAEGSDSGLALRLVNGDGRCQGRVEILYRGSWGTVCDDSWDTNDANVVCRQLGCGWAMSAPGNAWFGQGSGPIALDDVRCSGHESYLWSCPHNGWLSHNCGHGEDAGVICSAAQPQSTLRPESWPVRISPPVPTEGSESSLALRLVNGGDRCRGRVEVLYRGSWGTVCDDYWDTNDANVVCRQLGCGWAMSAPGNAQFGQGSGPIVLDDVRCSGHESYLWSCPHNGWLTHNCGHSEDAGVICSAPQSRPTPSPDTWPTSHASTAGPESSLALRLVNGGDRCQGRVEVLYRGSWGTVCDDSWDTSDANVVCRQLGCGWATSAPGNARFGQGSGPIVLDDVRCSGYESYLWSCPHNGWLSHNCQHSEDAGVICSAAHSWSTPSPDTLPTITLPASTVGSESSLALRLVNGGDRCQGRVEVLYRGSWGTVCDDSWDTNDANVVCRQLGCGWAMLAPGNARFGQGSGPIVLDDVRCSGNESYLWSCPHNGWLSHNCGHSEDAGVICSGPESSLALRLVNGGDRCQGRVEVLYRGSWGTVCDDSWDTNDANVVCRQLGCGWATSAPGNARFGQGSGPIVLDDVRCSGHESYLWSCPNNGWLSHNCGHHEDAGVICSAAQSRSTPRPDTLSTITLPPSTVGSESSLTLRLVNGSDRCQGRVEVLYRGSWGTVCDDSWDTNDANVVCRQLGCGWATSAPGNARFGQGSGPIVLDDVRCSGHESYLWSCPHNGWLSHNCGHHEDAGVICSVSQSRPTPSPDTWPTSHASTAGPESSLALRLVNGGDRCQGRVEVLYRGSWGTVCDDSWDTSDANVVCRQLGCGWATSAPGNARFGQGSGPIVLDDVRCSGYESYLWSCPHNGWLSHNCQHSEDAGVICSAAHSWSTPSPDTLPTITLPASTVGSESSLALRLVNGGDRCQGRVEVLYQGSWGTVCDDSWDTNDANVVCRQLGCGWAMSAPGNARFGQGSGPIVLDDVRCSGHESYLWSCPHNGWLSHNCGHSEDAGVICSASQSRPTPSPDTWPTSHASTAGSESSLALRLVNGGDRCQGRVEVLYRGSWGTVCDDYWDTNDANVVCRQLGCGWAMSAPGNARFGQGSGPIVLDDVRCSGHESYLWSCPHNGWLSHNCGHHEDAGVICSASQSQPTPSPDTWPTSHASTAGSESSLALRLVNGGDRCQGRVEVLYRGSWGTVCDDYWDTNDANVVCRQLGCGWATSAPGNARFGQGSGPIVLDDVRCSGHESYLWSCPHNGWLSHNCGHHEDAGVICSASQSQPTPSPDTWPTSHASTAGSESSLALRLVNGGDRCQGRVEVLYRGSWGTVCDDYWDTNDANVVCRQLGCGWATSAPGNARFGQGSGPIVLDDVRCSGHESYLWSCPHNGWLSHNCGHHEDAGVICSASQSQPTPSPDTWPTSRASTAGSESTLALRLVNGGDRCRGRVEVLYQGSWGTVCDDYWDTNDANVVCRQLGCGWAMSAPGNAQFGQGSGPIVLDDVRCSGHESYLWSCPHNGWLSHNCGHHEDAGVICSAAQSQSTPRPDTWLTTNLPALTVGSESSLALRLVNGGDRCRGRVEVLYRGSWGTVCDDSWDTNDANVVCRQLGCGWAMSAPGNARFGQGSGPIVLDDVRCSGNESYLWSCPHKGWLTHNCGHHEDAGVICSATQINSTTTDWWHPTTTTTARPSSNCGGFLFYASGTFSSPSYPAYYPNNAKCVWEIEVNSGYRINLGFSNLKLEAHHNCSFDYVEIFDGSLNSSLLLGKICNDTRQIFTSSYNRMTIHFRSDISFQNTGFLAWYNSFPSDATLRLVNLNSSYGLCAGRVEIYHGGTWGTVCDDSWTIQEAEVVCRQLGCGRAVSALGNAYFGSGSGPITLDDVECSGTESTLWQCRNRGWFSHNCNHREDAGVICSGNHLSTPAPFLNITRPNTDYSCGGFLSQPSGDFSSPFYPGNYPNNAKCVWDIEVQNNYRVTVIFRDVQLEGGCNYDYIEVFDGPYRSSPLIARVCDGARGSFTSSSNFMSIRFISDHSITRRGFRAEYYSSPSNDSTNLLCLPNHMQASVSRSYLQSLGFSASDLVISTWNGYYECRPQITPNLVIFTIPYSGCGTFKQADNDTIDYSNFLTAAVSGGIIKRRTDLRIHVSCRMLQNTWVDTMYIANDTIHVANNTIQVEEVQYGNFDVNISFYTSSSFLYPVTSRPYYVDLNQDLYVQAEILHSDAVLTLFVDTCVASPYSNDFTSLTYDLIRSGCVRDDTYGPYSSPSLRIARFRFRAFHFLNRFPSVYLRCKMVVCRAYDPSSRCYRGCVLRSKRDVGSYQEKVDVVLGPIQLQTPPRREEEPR
# Chain of full length gp-340 (exon 1-54) expressed on the surface of 293 cells transfected with pDEST-DMBT1 (clone 1D4) (Q9UGM3 20-2413 limits assumed, change not shown): as the sequence (Q9UGM3 20-2413) above
substance,measurement,setting,value
"HIV-1 Env (gp120) of primary M-tropic strain BL2, on virus particles","TCID50 of added virus in trans-infection to PHA-blasts, gp-340 expressing 293 cells against non-exogenously expressing 293 cells",[1],6 fold
same,"mean P24 in 6 wells, clone 1D4 without peptide 6284, 0.11 IU",[1],184
same,"mean P24 in 6 wells, clone 1D4 without peptide 6284, 0.33 IU",[1],239
same,"percentage of wells infected at 0.11 IU of HIV added (trans-infection, gp-340 expressing 293 cells)",[1],50%
same,"percentage of wells infected at 0.33 IU of HIV added (trans-infection, gp-340 expressing 293 cells)",[1],100%
same,enhancement in viral infectivity (AGS cell trans-infection),[2],6 fold
same,viral input at which cells were infected in 50% of the wells (AGS cell trans-infection),[2],0.08 IU
